Test results as given in the supplement of paper PMC9170038.

System: MS2 coat protein
Assay: apparent KD of MS2 coat protein; designed switch direction (-1 OFF switch, 1 ON switch): -1; higher = weaker reporter binding
How it was run: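 Designed RNA switches were transcribed on Illumina chips by stalled E. coli RNA polymerase and titrated with SNAP-549-labelled MS2 coat protein from 0.7 or 1.5 nM, doubling to 3 µM. Step length ran from 0.8–1.5 h at the lowest concentration to 10–20 min at the highest. The apparent KD is the median over clusters for each design, from curve-fitted normalised cluster fluorescence.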

[1] = Eterna round: R95, input ligand: FMN 200 uM
[2] = Eterna round: R95, input ligand: microRNA oligo, concentration not stated
[3] = Eterna round: R95, input ligand: none
[4] = input ligand: microRNA oligo, concentration not stated

Sequence	apparent KD of MS2 coat protein (input ligand: FMN 200 uM)	apparent KD of MS2 coat protein (input ligand: none)	apparent KD of MS2 coat protein [2]	also measured
GACAUUUGAGGAUAUGCAGCUAGCUUCGUUUUCAAAUCGAGACAUGAGGAUCACCCAUGUAGAAGGCAAGGUCG [Eternabot (L1) Solution 88] (Eterna round: R97, puzzle: Exclusion 2)	29.4 nM	31.9 nM	–	–
GAUCUGACAGGAUAUACAUGAGGAUCACCCAUGUGCGUGCUAGCGAAAGCUAGCGCAGGUAGAAGGGUCAGAUC [Ex3 dot plot directed v4] (puzzle: Exclusion 3)	–	–	11.3 nM	apparent KD of MS2 coat protein [1]: 14.4 nM; apparent KD of MS2 coat protein [3]: 12.9 nM
CCAAGCUUAUUCAUUAACAACAUGAGGAUCACCCAUGUGUAAGCAAUUAUGUUUGGGCUCUUUAGUGCUCGUCUUAU [Sensor-V1 #21] (Eterna round: R97, puzzle: Sensor, turn-off variant 1)	13.7 nM	13.9 nM	–	–
AAGUACCGUCACGAUAGUGAUGGUACAACAAGCAUGUAAACAUGAGGAUCACCCAUGUCCUCAAAUGCUCGUCUUAU [Sensor 3 - 65] (puzzle: Sensor v3, turn-off variant 2)	–	–	1090 nM	apparent KD of MS2 coat protein [1]: 556 nM; apparent KD of MS2 coat protein [3]: 689 nM
AGAUCGUCAGGAUAUACAUGAGGAUCACCCAUGUAUUGUCUAAAUUUGACUAUACGAUGUAGAAGGGACGAUCG [Exclusion 3 (MOD7 of #1 Marzena11)] (Eterna round: R97, puzzle: Exclusion 3)	41.7 nM	16.2 nM	–	–
AAAAGGCAAGCAUGAUCCCACAUGAGGAUCACCCAUGUGUUCGUCUUAUAGGCUGCUGAGGCUUUUGCCUCGGUGGC [LRO Sensor-off var1-05 loose mod of D91 from Mat747] (Eterna round: R97, puzzle: Sensor, turn-off variant 1)	587 nM	728 nM	–	–
AUAUACGUUGAGGAUAUGCGAAUAAGUAUAGUUGCAGAAGGCGACACAUGAGGAUCACCCAUGUUCAUGGACAC [LRO-Ex6-03] (puzzle: Exclusion 6)	–	–	26.6 nM	–
AGUACUAACUCGAAAGUGUUAGUACAAUAAGCUUGUGAAACAUGAGGAUCACCCAUGUCCUCAUAAGCUCGUCUUAU [salish99_TOv2_r3_022] (Eterna round: R96, puzzle: Sensor v3, turn-off variant 2)	16 nM	18 nM	–	apparent KD of MS2 coat protein [4]: 430 nM
UCUAGCUUUUUGCGUCAAGCAUUGAAGUCUGUUAUCGUUACAUGAGGAUCACCCAUGUUUGUUUUAUGUCGUCUUGA [JR_SV3TOV2_Sub100] (puzzle: Sensor v3, turn-off variant 2)	–	–	15.6 nM	apparent KD of MS2 coat protein [1]: 19.3 nM; apparent KD of MS2 coat protein [3]: 22.2 nM
AGCAUGUAAGGAUAUGUAACGCGGCGUUCAUUCGUCGUCCCACAGAAGGUACAUGAGGAUCACCCAUGUGCUCC [Veorla] (puzzle: Exclusion 4)	–	–	39 nM	–
CUGUCCCAAGGAUAUACAUCAGUCCCAGGGUGCCGCAUAAGACAUGAGGAUCACCCAUGUAGAAGGUGGAGACC [Esaranre] (puzzle: Exclusion 2)	–	–	82.1 nM	–
UCGCUGCGAGGAUAUACAUGAGGAUCACCCAUGUACGGGUCCGGGUUUGAGUUGAUGAGUAGAAGGCGCAGUGA [JL Laongeedie mod 13] (puzzle: Exclusion 3)	–	–	79.2 nM	–
AUAAAUCAUGUAGGAUAUGCGUGGAGAAGCUAUGCAGAAGGACAUGAGGAUCACCCAUGUGCUUCCGUCUGCGUACAGACGGAA [Mat - Exclusion NG 1 - Mod of JL - D36] (Eterna round: R96, puzzle: Exclusion NG 1)	38 nM	131 nM	–	apparent KD of MS2 coat protein [4]: 89.2 nM
ACACAAGCCCUUUGCUCGUUUUAAUACAGCGGGCUCUUCACAUGAGGAUCACCCAUGUAGGCCUUGUUCCAAGGCCG [Rebileve] (puzzle: Sensor v3, turn-off variant 2)	–	–	23.6 nM	apparent KD of MS2 coat protein [1]: 20.4 nM; apparent KD of MS2 coat protein [3]: 20 nM
ACUUACUGAGGAUAUACAUAGAUUUACAUGAGGAUCACCCAUGUUCCUCUAAGUAUAUAUGUAGAAGGCAGAAGAU [Mat - Exclusion 5 - JL Mod - D39] (Eterna round: R97, puzzle: Exclusion 5)	202 nM	116 nM	–	–
UAGAUGGGAGGAUAUGCAUAGAUACAGAUUCAUGUAGUGCUACAUGAGGAUCACCCAUGUAGAAGGCCCGUCUU [JL-ex2-2.20 Mayanne mod] (puzzle: Exclusion 2)	–	–	19.9 nM	–
AUAUUGUGAGGAUAUGAACUUAGUAUCGAAAGAUACUUAGUUCAGAAGGCACAUGAGGAUCACCCAUGUUUCUC [Long static hairpin v17] (Eterna round: R97, puzzle: Exclusion 4)	883 nM	69.8 nM	–	–
AACGUGUGAGGAUAUGCCGUGCCCUUCCGGAAGGAGCGGGUGCAGAAGGCACAUGAGGAUCACCCAUGUCGGCA [Excls4-V] (puzzle: Exclusion 4)	–	–	31.4 nM	–
CACUGGACAGGAUAUGUUCUUGAGCACUUGAGGAUCACCCAAGUCAUCAAGAACUCAGGCACAGAAGGGUUUAUGC [salish99_ex5_r4_012] (Eterna round: R97, puzzle: Exclusion 5)	24.7 nM	14 nM	–	–
GUCGAGUGAGGAUAUGGUGAGUAGUGCCAGAGCGCUGCUCACCAGAAGGCACAUGAGGAUCACCCAUGUAUGUC [Mat - Exclusion 4 - Mod of JL - D10] (puzzle: Exclusion 4)	–	–	12.3 nM	–
UAAAAGUGAGGAUAUACGUGAAAUCCGCCAGGCGGAGAUCUACAUGAGGAUCACCCAUGUAGAAGGCACGGAAU [EX2 A.13] (Eterna round: R97, puzzle: Exclusion 2)	15.8 nM	14 nM	–	–
AAGGGUGCUUUCAGAACGACAUGAGGAUCACCCAUGUAGACUGAGGAUAUCUACUCCUAAGGACGGGAGAAGGUAGUGUAAUGC [Ex NG3 #66] (Eterna round: R96, puzzle: Exclusion NG 3)	22.8 nM	26.1 nM	–	apparent KD of MS2 coat protein [4]: 17.7 nM
UGCAGACGAGGAUAUAGAUUUAGAUACAUGAGGAUCACCCAUGUAUACAUGUAUUUAGAUUUAGAAGGCGUCUGCU [E5/14-A3] (Eterna round: R97, puzzle: Exclusion 5)	952 nM	2220 nM	–	–
UCGGAUAGAGGAUAUACAUGAGGAUCACCCAUGUGGUCAAGCGGGUACGCCCAGCGAGGUAGAAGGCUAUCCGG [Eternabot (L1) Solution 16] (Eterna round: R97, puzzle: Exclusion 3)	407 nM	136 nM	–	–
